Source: patent US20260265717A1

T1: MG64-1 Cas12k expressed with an N-terminal Twin Strep tag and an HRV3C protease site and a C-terminal 2xNLS tag
T1 sequence: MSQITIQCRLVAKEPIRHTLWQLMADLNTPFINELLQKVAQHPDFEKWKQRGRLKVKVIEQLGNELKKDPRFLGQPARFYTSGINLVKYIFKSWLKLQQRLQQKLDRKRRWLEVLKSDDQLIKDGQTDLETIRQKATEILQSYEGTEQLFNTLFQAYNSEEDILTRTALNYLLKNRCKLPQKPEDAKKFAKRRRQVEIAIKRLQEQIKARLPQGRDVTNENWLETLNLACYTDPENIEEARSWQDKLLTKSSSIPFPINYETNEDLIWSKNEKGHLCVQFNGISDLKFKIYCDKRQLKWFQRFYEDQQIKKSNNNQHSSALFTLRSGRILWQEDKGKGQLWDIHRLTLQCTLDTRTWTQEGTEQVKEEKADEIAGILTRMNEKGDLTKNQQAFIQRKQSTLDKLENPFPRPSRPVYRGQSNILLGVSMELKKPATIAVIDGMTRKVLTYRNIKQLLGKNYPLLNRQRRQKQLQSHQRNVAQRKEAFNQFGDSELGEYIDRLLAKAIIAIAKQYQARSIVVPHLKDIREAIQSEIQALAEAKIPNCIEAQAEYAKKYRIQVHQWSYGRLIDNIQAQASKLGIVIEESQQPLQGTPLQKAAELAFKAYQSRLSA


Molecular target: T1, MG64-1 Cas12k expressed with an N-terminal Twin Strep tag and an HRV3C protease site and a C-terminal 2xNLS tag
Assay: mass spectrometry of tryptic peptides from SEC-eluted Cas12k Strep pulldown complex; emPAI is a relative measure of abundance

Row | emPAI | Binder
1 | 1.61 | MG64-1 TniQ (protein) MESREIQPWWFLVEPLAGESISHFLGRFRRENELTVTMMGKITGLGGTITRWEKFRFIPIPTEEELTALSEVVQVEVERLWQMFPPKGVGMKHQPIRLCGACYEEERCHKIEWQLKTTQFCSQHGLTLLSECPNCGARFQFPALWVNGWCHRCFLTFGEMVEGQSNKKKYL
2 | 2.43 | MG64-1 TnsC (protein) MTIQEAQAVAKQLGDIQLTSEKLQAEIQRLNRKTVVTLSHVEALHNWLEGKRQAKQSCRVVGESRTGKTIACNAYRLRHKPIQTPGKPPIVPVVYIQVTQECGAKDLFGAIIEHLKYQMTKGTVAEIRQRTFKVLQRCGVEMLIIDEADRLKPKTFAEVRDIFDKLNIAVVLVGTDRLDAVIKRDEQVYNRFRACHRFGKLAGDEFSQTVNIWERQVLKLPVASNLSSKRMLKILGQATGGYLGLLDMILRESAIRALKKGLQKIDLDTLKEVTEEYR
